Assay results taken from the supplement of paper PMC9116672.
± gives the standard deviation of the averaged measurements or the uncertainty stated by the source.

Assays:
[1] = duplex melting temperature (HRM, EvaGreen); higher = more stable duplex
Description: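 Listed DNA strand annealed 1:1 with its complementary strand (95 °C 5 min, 0.1 °C/s to 20 °C). Melted in 1x NNE buffer (500 mM NaCl, 10 mM Na2HPO4, 1 mM EDTA, pH 7.0) with 1x EvaGreen on a LightCycler96 (37 to 97 °C, 0.1 °C/s). Tm is the peak of -dF/dT at the stated total duplex concentration; 4 replicates are averaged. PS oligos are non-stereospecific (Rp/Sp mixtures).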

[2] = duplex formation free energy ΔG50 (Van't Hoff fit of HRM Tm); higher = less stable duplex; conditions: temperature for dG: 50 °C, NaCl: 500 mM (unadjusted)
Description: (§1)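 Duplex of the listed DNA strand with its complement, in 1x NNE buffer (500 mM NaCl, pH 7.0) with 1x EvaGreen. ΔH and ΔS come from a Van't Hoff linear fit of 1/Tm against ln(CT/4) over 1-20 uM, using HRM Tm values.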

[3] = duplex formation enthalpy ΔH (Van't Hoff fit of HRM Tm); higher = less exothermic duplex formation; conditions: temperature for dG: 50 °C, NaCl: 500 mM (unadjusted)
Description: as §1

[4] = duplex formation entropy ΔS (Van't Hoff fit of HRM Tm); higher = smaller entropy loss on duplex formation; conditions: temperature for dG: 50 °C, NaCl: 500 mM (unadjusted)
Description: as §1

[5] = duplex concentration 1 µM, backbone: PO-PO (both strands phosphodiester DNA)
[6] = duplex concentration 1 µM, backbone: PS-PS (both strands fully phosphorothioate)
[7] = duplex concentration 2.5 µM, backbone: PO-PO (both strands phosphodiester DNA)
[8] = duplex concentration 2.5 µM, backbone: PS-PO (listed strand fully phosphorothioate, complement phosphodiester)
[9] = duplex concentration 2.5 µM, backbone: PS-PS (both strands fully phosphorothioate)
[10] = duplex concentration 5 µM, backbone: PO-PO (both strands phosphodiester DNA)
[11] = duplex concentration 5 µM, backbone: PS-PO (listed strand fully phosphorothioate, complement phosphodiester)
[12] = duplex concentration 5 µM, backbone: PS-PS (both strands fully phosphorothioate)
[13] = duplex concentration 7.5 µM, backbone: PO-PO (both strands phosphodiester DNA)
[14] = duplex concentration 7.5 µM, backbone: PS-PO (listed strand fully phosphorothioate, complement phosphodiester)
[15] = duplex concentration 7.5 µM, backbone: PS-PS (both strands fully phosphorothioate)
[16] = duplex concentration 10 µM, backbone: PO-PO (both strands phosphodiester DNA)
[17] = duplex concentration 10 µM, backbone: PS-PO (listed strand fully phosphorothioate, complement phosphodiester)
[18] = duplex concentration 10 µM, backbone: PS-PS (both strands fully phosphorothioate)
[19] = duplex concentration 15 µM, backbone: PO-PO (both strands phosphodiester DNA)
[20] = duplex concentration 15 µM, backbone: PS-PO (listed strand fully phosphorothioate, complement phosphodiester)
[21] = duplex concentration 15 µM, backbone: PS-PS (both strands fully phosphorothioate)
[22] = duplex concentration 20 µM, backbone: PO-PO (both strands phosphodiester DNA)
[23] = duplex concentration 20 µM, backbone: PS-PO (listed strand fully phosphorothioate, complement phosphodiester)
[24] = duplex concentration 20 µM, backbone: PS-PS (both strands fully phosphorothioate)
[25] = backbone: PO-PO (both strands phosphodiester DNA)
[26] = backbone: PS-PO (listed strand fully phosphorothioate, complement phosphodiester)
[27] = backbone: PS-PS (both strands fully phosphorothioate)
[28] = duplex concentration 1 µM, backbone: PS-PO (listed strand fully phosphorothioate, complement phosphodiester)

TTAACCTGCAATGGATC
duplex melting temperature [1, 5]: 60.19 ± 0.12 °C | duplex melting temperature [1, 6]: 45.6 ± 0.62 °C | duplex melting temperature [1, 7]: 63.2 ± 0.41 °C | duplex melting temperature [1, 8]: 57.18 ± 0.21 °C | duplex melting temperature [1, 9]: 48.62 ± 0.33 °C | duplex melting temperature [1, 10]: 65.13 ± 0.59 °C | duplex melting temperature [1, 11]: 59.09 ± 0.26 °C | duplex melting temperature [1, 12]: 50.69 ± 0.37 °C | duplex melting temperature [1, 13]: 66.57 ± 0.28 °C | duplex melting temperature [1, 14]: 60.587 ± 0.046 °C | duplex melting temperature [1, 15]: 51.91 ± 0.21 °C | duplex melting temperature [1, 16]: 67.55 ± 0.2 °C | duplex melting temperature [1, 17]: 61.376 ± 0.056 °C | duplex melting temperature [1, 18]: 52.76 ± 0.14 °C | duplex melting temperature [1, 19]: 68.98 ± 0.14 °C | duplex melting temperature [1, 20]: 62.586 ± 0.015 °C | duplex melting temperature [1, 21]: 54.03 ± 0.099 °C | duplex melting temperature [1, 22]: 70.06 ± 0.25 °C | duplex melting temperature [1, 23]: 63.32 ± 0.095 °C | duplex melting temperature [1, 24]: 54.97 ± 0.2 °C | duplex formation free energy ΔG50 [2, 25]: -11.83 ± 0.098 kcal/mol | duplex formation free energy ΔG50 [2, 26]: -10.78 ± 0.066 kcal/mol | duplex formation free energy ΔG50 [2, 27]: -8.858 ± 0.019 kcal/mol | duplex formation enthalpy ΔH [3, 25]: -68.7 ± 2 kcal/mol | duplex formation enthalpy ΔH [3, 26]: -73.7 ± 2 kcal/mol | duplex formation enthalpy ΔH [3, 27]: -67.1 ± 1.9 kcal/mol | duplex formation entropy ΔS [4, 25]: -176 ± 5.8 cal/mol/K | duplex formation entropy ΔS [4, 26]: -195 ± 6.1 cal/mol/K | duplex formation entropy ΔS [4, 27]: -180 ± 5.8 cal/mol/K

ACGGGTCGTTCCGTG
duplex melting temperature [1, 8]: 60.97 ± 0.26 °C | duplex melting temperature [1, 9]: 56.07 ± 0.25 °C | duplex melting temperature [1, 10]: 71.45 ± 0.49 °C | duplex melting temperature [1, 11]: 63.292 ± 0.043 °C | duplex melting temperature [1, 12]: 58.82 ± 0.085 °C | duplex melting temperature [1, 13]: 73.32 ± 0.23 °C | duplex melting temperature [1, 14]: 64.64 ± 0.1 °C | duplex melting temperature [1, 15]: 60 ± 0.17 °C | duplex melting temperature [1, 16]: 74.34 ± 0.26 °C | duplex melting temperature [1, 17]: 65.62 ± 0.087 °C | duplex melting temperature [1, 18]: 60.71 ± 0.21 °C | duplex melting temperature [1, 19]: 75.77 ± 0.15 °C | duplex melting temperature [1, 20]: 67.006 ± 0.054 °C | duplex melting temperature [1, 21]: 61.81 ± 0.19 °C | duplex melting temperature [1, 22]: 76.55 ± 0.13 °C | duplex melting temperature [1, 23]: 68.03 ± 0.2 °C | duplex melting temperature [1, 24]: 62.74 ± 0.27 °C | duplex formation free energy ΔG50 [2, 25]: -13.1 ± 0.37 kcal/mol | duplex formation free energy ΔG50 [2, 26]: -11.37 ± 0.043 kcal/mol | duplex formation free energy ΔG50 [2, 27]: -10.5 ± 0.13 kcal/mol | duplex formation enthalpy ΔH [3, 25]: -68.9 ± 5.2 kcal/mol | duplex formation enthalpy ΔH [3, 26]: -67 ± 0.95 kcal/mol | duplex formation enthalpy ΔH [3, 27]: -70.7 ± 4.1 kcal/mol | duplex formation entropy ΔS [4, 25]: -173 ± 15 cal/mol/K | duplex formation entropy ΔS [4, 26]: -172 ± 2.8 cal/mol/K | duplex formation entropy ΔS [4, 27]: -186 ± 12 cal/mol/K

CTCAGAGTAGAGCCGA
duplex melting temperature [1, 5]: 63.68 ± 0.069 °C | duplex melting temperature [1, 28]: 57.92 ± 0.21 °C | duplex melting temperature [1, 6]: 49.9 ± 1.1 °C | duplex melting temperature [1, 7]: 65.7 ± 0.74 °C | duplex melting temperature [1, 8]: 60.75 ± 0.31 °C | duplex melting temperature [1, 9]: 53.32 ± 0.14 °C | duplex melting temperature [1, 10]: 68.22 ± 0.15 °C | duplex melting temperature [1, 11]: 63.08 ± 0.2 °C | duplex melting temperature [1, 12]: 55.65 ± 0.051 °C | duplex melting temperature [1, 13]: 69.47 ± 0.26 °C | duplex melting temperature [1, 14]: 64.34 ± 0.11 °C | duplex melting temperature [1, 15]: 56.75 ± 0.12 °C | duplex melting temperature [1, 16]: 70.41 ± 0.2 °C | duplex melting temperature [1, 17]: 65.17 ± 0.17 °C | duplex melting temperature [1, 18]: 57.39 ± 0.097 °C | duplex melting temperature [1, 19]: 71.91 ± 0.23 °C | duplex melting temperature [1, 20]: 66.49 ± 0.15 °C | duplex melting temperature [1, 21]: 58.63 ± 0.12 °C | duplex melting temperature [1, 22]: 72.85 ± 0.2 °C | duplex melting temperature [1, 23]: 67.47 ± 0.082 °C | duplex melting temperature [1, 24]: 59.42 ± 0.24 °C | duplex formation free energy ΔG50 [2, 25]: -12.5 ± 0.13 kcal/mol | duplex formation free energy ΔG50 [2, 26]: -11.45 ± 0.047 kcal/mol | duplex formation free energy ΔG50 [2, 27]: -9.827 ± 0.057 kcal/mol | duplex formation enthalpy ΔH [3, 25]: -70.2 ± 2.2 kcal/mol | duplex formation enthalpy ΔH [3, 26]: -70.4 ± 1.1 kcal/mol | duplex formation enthalpy ΔH [3, 27]: -68.5 ± 2.8 kcal/mol | duplex formation entropy ΔS [4, 25]: -179 ± 6.5 cal/mol/K | duplex formation entropy ΔS [4, 26]: -183 ± 3.4 cal/mol/K | duplex formation entropy ΔS [4, 27]: -182 ± 8.6 cal/mol/K

GCAGGAGCCGCGACCTG
duplex melting temperature [1, 28]: 68.45 ± 0.49 °C | duplex melting temperature [1, 6]: 62.56 ± 0.17 °C | duplex melting temperature [1, 7]: 78.12 ± 0.35 °C | duplex melting temperature [1, 8]: 71.31 ± 0.39 °C | duplex melting temperature [1, 9]: 65.18 ± 0.082 °C | duplex melting temperature [1, 10]: 79.75 ± 0.071 °C | duplex melting temperature [1, 11]: 73.48 ± 0.49 °C | duplex melting temperature [1, 12]: 66.99 ± 0.15 °C | duplex melting temperature [1, 13]: 80.79 ± 0.2 °C | duplex melting temperature [1, 14]: 74.78 ± 0.33 °C | duplex melting temperature [1, 15]: 68.28 ± 0.17 °C | duplex melting temperature [1, 16]: 81.76 ± 0.16 °C | duplex melting temperature [1, 17]: 75.68 ± 0.15 °C | duplex melting temperature [1, 18]: 69.26 ± 0.061 °C | duplex melting temperature [1, 19]: 82.48 ± 0.27 °C | duplex melting temperature [1, 20]: 76.9 ± 0.33 °C | duplex melting temperature [1, 21]: 70.16 ± 0.069 °C | duplex melting temperature [1, 22]: 83.26 ± 0.12 °C | duplex melting temperature [1, 23]: 77.68 ± 0.29 °C | duplex melting temperature [1, 24]: 71.01 ± 0.16 °C | duplex formation free energy ΔG50 [2, 25]: -17.2 ± 0.47 kcal/mol | duplex formation free energy ΔG50 [2, 26]: -13.98 ± 0.13 kcal/mol | duplex formation free energy ΔG50 [2, 27]: -12.81 ± 0.099 kcal/mol | duplex formation enthalpy ΔH [3, 25]: -100 ± 5.4 kcal/mol | duplex formation enthalpy ΔH [3, 26]: -77.6 ± 1.8 kcal/mol | duplex formation enthalpy ΔH [3, 27]: -81.2 ± 1.9 kcal/mol | duplex formation entropy ΔS [4, 25]: -257 ± 15 cal/mol/K | duplex formation entropy ΔS [4, 26]: -197 ± 5.2 cal/mol/K | duplex formation entropy ΔS [4, 27]: -212 ± 5.6 cal/mol/K

ACATGACTCATCTTAGCCGGCGAG
duplex melting temperature [1, 5]: 77.5 ± 1.1 °C | duplex melting temperature [1, 28]: 71.03 ± 0.65 °C | duplex melting temperature [1, 6]: 63.8 ± 0.81 °C | duplex melting temperature [1, 7]: 79.47 ± 0.48 °C | duplex melting temperature [1, 8]: 72.33 ± 0.54 °C | duplex melting temperature [1, 9]: 65.78 ± 0.62 °C | duplex melting temperature [1, 10]: 80.58 ± 0.42 °C | duplex melting temperature [1, 11]: 73.6 ± 0.59 °C | duplex melting temperature [1, 12]: 67.03 ± 0.46 °C | duplex melting temperature [1, 13]: 81.54 ± 0.25 °C | duplex melting temperature [1, 14]: 74.24 ± 0.52 °C | duplex melting temperature [1, 15]: 68.06 ± 0.18 °C | duplex melting temperature [1, 16]: 82.18 ± 0.17 °C | duplex melting temperature [1, 17]: 75.03 ± 0.16 °C | duplex melting temperature [1, 18]: 68.59 ± 0.11 °C | duplex melting temperature [1, 19]: 82.95 ± 0.13 °C | duplex melting temperature [1, 20]: 75.79 ± 0.14 °C | duplex melting temperature [1, 21]: 69.29 ± 0.1 °C | duplex melting temperature [1, 22]: 83.69 ± 0.2 °C | duplex melting temperature [1, 23]: 76.42 ± 0.052 °C | duplex melting temperature [1, 24]: 69.97 ± 0.13 °C | duplex formation free energy ΔG50 [2, 25]: -19.9 ± 0.5 kcal/mol | duplex formation free energy ΔG50 [2, 26]: -17.8 ± 0.41 kcal/mol | duplex formation free energy ΔG50 [2, 27]: -14.53 ± 0.14 kcal/mol | duplex formation enthalpy ΔH [3, 25]: -128 ± 5.6 kcal/mol | duplex formation enthalpy ΔH [3, 26]: -133 ± 5.9 kcal/mol | duplex formation enthalpy ΔH [3, 27]: -115 ± 2.6 kcal/mol | duplex formation entropy ΔS [4, 25]: -336 ± 16 cal/mol/K | duplex formation entropy ΔS [4, 26]: -356 ± 17 cal/mol/K | duplex formation entropy ΔS [4, 27]: -311 ± 7.6 cal/mol/K
